Laboratory results taken from patent publication US20080009025A1, “PROTEIN KINASE REGULATION” (priority 1999, published 2008).

Target: PIFtide (24 residue synthetic peptide encompassing the PDK1 binding site on PIF) (human)
Experiment: method not stated

PIFtide (24 residue synthetic peptide encompassing the PDK1 binding site on PIF) (human), sequence (peptide, as listed by the source): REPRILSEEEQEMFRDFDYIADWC

“GST-PDK1[K115A] (from UniProt O15530 1-556) (enzyme)” gave a fold decrease in affinity (against wild type PDK1) of 10 fold.
